# Assay results from US20180245061A1, “Modified Heterocyclase” (THE UNIVERSITY COURT OF THE UNIVERSITY OF ABERDEEN, priority 2014, published 2018).
# Where a chain is given by its changes, count along the chain named. In names and notes the source's numbering stands. Where no end group is shown, it is not given here.
# B1: LynD K409E: LynD point mutant K409E (protein)
# chain: MQSTPLLQIQPHFHVEVIEPKQVYLLGEQANHALTGQLYCQILPLLNGQYTLEQIVEKLDGEVPPEYIDYVLERLAEKGYLTEAAPELSSEVAAFWSELGIAPPVAAEALRQPVTLTPVGNISEVTVAALTTALRDIGISVQTPTEAGSPTALNVVLTDDYLQPELAKINKQALESQQTWLLVKPVGSVLWLGPVFVPGKTGCWDCLAHRLRGNREVEASVLRQKQAQQQRNGQSGSVIGCLPTARATLPSTLQTGLQFAATEIAKWIVKYHVNATAPGTVFFPTLDGKIITLNHSILDLKSHILIKRSQCPTCGDPKILQHRGFEPLKLESRPKQFTSDGGHRGTTPEQTVQKYQHLISPVTGVVTELVRITDPANPLVHTYRAGHSFGSATSLRGLRNTLKHKSSGEGKTDSQSKASGLCEAVERYSGIFQGDEPRKRATLAELGDLAIHPEQCLCFSDGQYANRETLNEQATVAHDWIPQRFDASQAIEWTPVWSLTEQTHKYLPTALCYYHYPLPPEHRFARGDSNGNAAGNTLEEAILQGFMELVERDGVALWWYNRLRRPAVDLGSFNEPYFVQLQQFYRENDRDLWVLDLTADLGIPAFAGVSNRKTGSSERLILGFGAHLDPTIAILRAVTEVNQIGLELDKVPDENLKSDATDWLITEKLADHPYLLPDTTQPLKTAQDYPKRWSDDIYTDVMTCVNIAQQAGLETLVIDQTRPDIGLNVVKVTVPGMRHFWSRFGEGRLYDVPVKLGWLDEPLTEAQMNPTPMPF
# B2: LynD E423R: LynD point mutant E423R (protein)
# chain: B1 chain with E409K, E423R
# B3: LynD K409A: LynD point mutant K409A (protein)
# chain: B1 chain with E409A
# B4: TruD: cyanobactin heterocyclase from the trunkamide pathway, SEQ ID NO: 3 (protein)
# chain: MQPTALQIKPHFHVEIIEPKQVYLLGEQGNHALTGQLYCQILPFLNGEYTREQIVEKLDGQVPEEYIDFVLSRLVEKGYLTEVAPELSLEVAAFWSELGIAPSVVAEGLKQPVTVTTAGKGIREGIVANLAAALEEAGIQVSDPRDPKAPKAGDSTAQLQVVLTDDYLQPELAAINKEALERQQPWLLVKPVGSILWLGPLFVPGETGCWHCLAQRLQGNREVEASVLQQKRALQERNGQNKNGAVSCLPTARATLPSTLQTGLQWAATEIAKWMVKRHLNAIAPGTARFPTLAGKIFTFNQTTLELKAHPLSRRPQCPTCGDRETLQRRGFEPLKLESRPKHFTSDGGHRAMTPEQTVQKYQHLIGPITGVVTELVRISDPANPLVHTYRAGHSFGSATSLRGLRNVLRHKSSGKGKTDSQSRASGLCEAIERYSGIFQGDEPRKRATLAELGDLAIHPEQCLHFSDRQYDNRESSNERATVTHDWIPQRFDASKAHDWTPVWSLTEQTHKYLPTALCYYRYPFPPEHRFCRSDSNGNAAGNTLEEAILQGFMELVERDSVCLWWYNRVSRPAVDLSSFDEPYFLQLQQFYQTQNRDLWVLDLTADLGIPAFVGVSNRKAGSSERIILGFGAHLDPTVAILRALTEVNQIGLELDKVSDESLKNDATDWLVNATLAASPYLVADASQPLKTAKDYPRRWSDDIYTDVMTCVEIAKQAGLETLVLDQTRPDIGLNVVKVIVPGMRFWSRFGSGRLYDVPVKLGWREQPLAEAQMNPTPMPF
# modifications: Prochloron sp. 06037A
# B5: LynD fusion: residues 21-38 of the PatE leader and an eleven residue long linker added to the N-terminus of LynD (SEQ ID NO: 39) (protein)
# chain: MSHHHHHHDYDENLYFQGSQLSSQLAELSEEALGDAGAGAGAGAGAGAMQSTPLLQIQPHFHVEVIEPKQVYLLGEQANHALTGQLYCQILPLLNGQYTLEQIVEKLDGEVPPEYIDYVLERLAEKGYLTEAAPELSSEVAAFWSELGIAPPVAAEALRQPVTLTPVGNISEVTVAALTTALRDIGISVQTPTEAGSPTALNVVLTDDYLQPELAKINKQALESQQTWLLVKPVGSVLWLGPVFVPGKTGCWDCLAHRLRGNREVEASVLRQKQAQQQRNGQSGSVIGCLPTARATLPSTLQTGLQFAATEIAKWIVKYHVNATAPGTVFFPTLDGKIITLNHSILDLKSHILIKRSQCPTCGDPKILQHRGFEPLKLESRPKQFTSDGGHRGTTPEQTVQKYQHLISPVTGVVTELVRITDPANPLVHTYRAGHSFGSATSLRGLRNTLKHKSSGKGKTDSQSKASGLCEAVERYSGIFQGDEPRKRATLAELGDLAIHPEQCLCFSDGQYANRETLNEQATVAHDWIPQRFDASQAIEWTPVWSLTEQTHKYLPTALCYYHYPLPPEHRFARGDSNGNAAGNTLEEAILQGFMELVERDGVALWWYNRLRRPAVDLGSFNEPYFVQLQQFYRENDRDLWVLDLTADLGIPAFAGVSNRKTGSSERLILGFGAHLDPTIAILRAVTEVNQIGLELDKVPDENLKSDATDWLITEKLADHPYLLPDTTQPLKTAQDYPKRWSDDIYTDVMTCVNIAQQAGLETLVIDQTRPDIGLNVVKVTVPGMRHFWSRFGEGRLYDVPVKLGWLDEPLTEAQMNPTPMPF
# modifications: Modified heterocyclase
# Tests used:
# [1] = tested on: LynD; experiment: Trans activation of LynD by exogenous leader peptide (turnover of test peptide ITACITFCAYDG); format: biochemical, Lyngbya sp.; conditions: for acceleration of turnover of the test peptide by LynD: 5.5 μM leader peptide in trans, 5 μM LynD, 100 μM ITACITFCAYDG; for heterocycles observed in test peptide with LynD plus leader in trans: overnight incubation
# Experimental: (§1) For all heterocyclization reactions, […] PatE′ (and variants,) was incubated with 2 μM enzyme in 150 mM NaCl, 10 mM HEPES pH 7.4, 1 mM TCEP, 5 mM ATP and 5 mM MgCl2 for 16 h at 37° C. Samples were analyzed by ESI or MALDI MS (LCT, Micromass or 4800 MALDI TOF/TOF Analyzer, ABSciex). For cis trans activation studies, 100 μM ITACITFCAYDG synthetic test peptide (Peptide Protein Research Ltd) was reacted with 5 μM heterocyclase enzyme in the presence and absence of 5.5 μM LAELSEEAL synthetic peptide, or 5.5 μM full-length PatE′4 leader peptide. The reaction was carried out in 150 mM NaCl, 10 mM HEPES pH 7.4, 1 mM TCEP, 5 mM ATP and 5 mM MgCl2 for 16 h at 37° C. and analyzed as above. Synthetic peptides were purchased from Peptide Protein Research Ltd.
# To assess the relative rates of heterocyclization under various conditions, heterocyclization reactions were monitored at regular intervals using MALDI TOF MS. In each case, reactions of PatE′ or ITACITFCAYDG synthetic peptide were prepared as described and incubated at 37° C. prior to addition of LynD allowing a 0 time-point to be recorded. Time points for each reaction were recorded as follows: For PatE′ with LynD (standard conditions), PatE′ with LynD in the presence of α-β-methelene ATP, and ITACITFCAYDG with LynD fusion, the reaction was monitored after 1, 5, 10, 15, 20, 30, 45, 60, 90, 120 and 180 minutes; For ITACITFCAYDG with LynD in the absence, and presence of either minimal leader LAELSEEAL peptide, or full length PatE′4 leader peptide, the reaction was monitored after 15, 30, 60, 120, 240 and 1440 minutes. Reactions were set up in triplicate, and each sample was analyzed by MALDI TOF MS in triplicate (9 spectra recorded in total for each reaction at each time point). For each time point, the total ion count for each species (0, 1 and 2 heterocycles) was recorded, averaged and the percentage of each species was calculated. The rate of each reaction relative to the wild-type reaction (PatE′+LynD) was determined. LC-MS of reaction mixtures was performed on a Waters LC-MS system (LCT mass spectrometer and 2795 HPLC) using a Waters MassPrep column (2.1×10 mm). Solvent B was 0.1% formic acid and Solvent A was MeCN containing 0.1% formic acid. Gradient 0-0.5 min 98% B, 0.5-2.5 min linear to 2% B, 2.5-4.5 min 2% B, 4.5-4.6 min linear to 98% B, […] 98% B at 0.05 ml min−1. The following conditions were used on the mass spectrometer: ESI +ve, capillary voltage 3.5 kV, cone voltage 40 V, mass range 500-2500 m/z, RF lens 500. The spectra were combined across the eluted protein peak and the charged ion series processed using Water's MaxEnt algorithm to give protein mass, using peak width at half height on the strongest peak in the ion envelope. […]
# [2] = tested on: PatE′; experiment: Heterocyclization reaction with PatE′, MS analysis; format: biochemical; conditions: PatE′ with 2 μM enzyme, 5 mM ATP, 5 mM MgCl2, 16 h at 37° C.; TABLE 1
# Experimental: as §1
# [3] = tested on: ITACITFCAYDG synthetic test peptide; experiment: Heterocyclization of leaderless core/test peptide ITACITFCAYDG (LCMS, MALDI TOF MS time course); format: biochemical; conditions: for heterocycles formed in core peptide ITACITFCAYDG: no leader
# Experimental: After 16 h core peptide incubated with either TruD or LynD only 1 heterocycle is formed. In contrast when incubated with LynD fusion, the heterocyclization reaction is nearly complete—the sample containing predominantly 2 heterocycles after just 2 h. PatE′ and LynD reaction after 2 h is shown as a reference.
# as §1, with “Synthetic peptides were purchased from Peptide Protein Research Ltd.” left out
# To assess the relative rates of heterocyclization under various conditions, heterocyclization reactions were monitored at regular intervals using MALDI TOF MS. In each case, reactions of PatE′ or ITACITFCAYDG synthetic peptide were prepared as described and incubated at 37° C. prior to addition of LynD allowing a 0 time-point to be recorded. Time points for each reaction were recorded as follows: For PatE′ with LynD (standard conditions), PatE′ with LynD in the presence of α-β-methelene ATP, and ITACITFCAYDG with LynD fusion, the reaction was monitored after 1, 5, 10, 15, 20, 30, 45, 60, 90, 120 and 180 minutes; For ITACITFCAYDG with LynD in the absence, and presence of either minimal leader LAELSEEAL peptide, or full length PatE′4 leader peptide, the reaction was monitored after 15, 30, 60, 120, 240 and 1440 minutes. Reactions were set up in triplicate, and each sample was analyzed by MALDI TOF MS in triplicate (9 spectra recorded in total for each reaction at each time point). […] The rate of each reaction relative to the wild-type reaction (PatE′+LynD) was determined. […]
# Chain of PatE′ (as listed by the source): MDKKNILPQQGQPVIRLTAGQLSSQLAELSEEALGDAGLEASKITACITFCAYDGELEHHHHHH
molecule,measurement,setting,value
"full-length PatE leader: full-length leader peptide from trypsin digestion of quadruple mutant PatE′4 (D2Y, K3E, K4E, R16E)",acceleration of turnover of the test peptide by LynD,[1],6.7 fold
same,heterocycles observed in test peptide with LynD plus leader in trans,[1],both heterocycles are observed
"LAELSEEAL (ends and bridges not checked) [minimal leader, residues 26 to 34 of PatE]",acceleration of turnover of the test peptide by LynD,[1],5.0 fold
same,heterocycles observed in test peptide with LynD plus leader in trans,[1],both heterocycles are observed
B1,No. of heterocycles (PatE′),[2],2
B2,No. of heterocycles (PatE′),[2],0
B3,No. of heterocycles (PatE′),[2],1
B4,heterocycles formed in core peptide ITACITFCAYDG,"[3]; after 16 h / overnight, 5 μM enzyme, 100 μM peptide, 37° C.",1
B5,heterocycles formed in core peptide ITACITFCAYDG,"[3]; after 2 h, LCMS",2
same,rate of processing both cysteines in the test peptide,[3]; compared with native LynD on full length PatE′ substrate,comparable to the full length PatE′ substrate
